The target of test [1] is T1, human L1CAM protein (hL1CAM, Sino biological, Cat No.10140-H08H) (human, UniProt P32004 20-1120).
T1 construct: Bought protein used in the Octet assay; also called antigen hL1CAM
Kind of test: Octet, AR2G sensor, 3R-H8 loaded as ligand at 5 ug/ml (10 mM acetate pH 5.0), hL1CAM as analyte 0 ~ 200 nM in 1X PBS + 0.09% Tween; column head kdis(1/s). The procedure: (§1) The clone 3R-H8 showing the highest binding affinity among four types of anti-L1CAM scFv was subjected to a conversion procedure, thereby securing the whole IgG1 antibody. Through the Octet system (Forte Bio, Model No. QK384) using the purified whole IgG1 antibody, the antigen-antibody affinity was analyzed for the antigen hL1CAM (Sino biological, Cat No.10140-H08H) protein or mL1CAM (R&D, Cat No. 5674-NC) protein.
A general note: BLI is a label-free optical method that tracks binding on a fibre tip over time.

The target of test [2] is T1, human L1CAM protein (hL1CAM, Sino …). Kind of test: BLI, Octet system (Forte Bio QK384). As for the experimental part:
as §1

For test [3], the target named is T2, mouse L1CAM (mL1CAM) protein fused with the Fc domain (R&D system, Cat No.5674-NC) (mouse, UniProt P11627 20-1123, limits assumed).
T2 construct: Bought protein; also called mL1CAM-Fc; antigen mL1CAM; not shown: Fc domain
Kind of test: BLI, Octet system (Forte Bio QK384). As for the experimental part:
as §1

The target in test [4] is T1, human L1CAM protein (hL1CAM, Sino …). Kind of test: Octet, AR2G sensor, 3R-H8 loaded as ligand at 5 ug/ml (10 mM acetate pH 5.0), hL1CAM as analyte 0 ~ 200 nM in 1X PBS + 0.09% Tween. The procedure: as §1
The target of test [5] is T2, mouse L1CAM (mL1CAM) protein fused with …. Kind of test: Octet, AR2G sensor, 3R-H8 loaded as ligand at 5 ug/ml (10 mM acetate pH 6.0), mL1CAM as analyte 0 ~ 100 nM in 1X PBS + 0.09% Tween. As for the experimental part: as §1
Test [6] shares this target. Kind of test: Octet, AR2G sensor, 3R-H8 loaded as ligand at 5 ug/ml (10 mM acetate pH 6.0), mL1CAM as analyte 0 ~ 100 nM in 1X PBS + 0.09% Tween; column head kdis(1/s). As for the experimental part: as §1
Test [7] shares this target. Kind of test: monoclonal phage ELISA, plate coated with mL1CAM-Fc (3R clones), HRP-anti-M13, absorbance at 450 nm, cut-off 0.4. As for the experimental part:
Specifically, the antigen mL1CAM protein was added to 96-well plates, incubated at 4° C. overnight, and then blocked with 2% MPBS at 37° C. for 2 hours. Since the antigen mL1CAM protein was fused with the Fc domain, Fc as an Fc control was also added to the 96-well plates, incubated at 4° C. overnight, and blocked with 2% MPBS at 37° C. for 2 hours. Then, the phages (up to 10¹¹ cfu) were added to the 96-well plates. After incubation at room temperature for 90 minutes, HRP-anti-M13 (Sino Biological, Cat No. 11973-MM05) was diluted in PBS to 1:5000, and added to 96-well plates. After incubation at room temperature for 1 hour, TMB substrate (Sigma, Cat No. T0440) and 2N H2504 (Merck, Cat No.100731) were sequentially added, and the absorbance (OD) at 450 nm was measured. As a result, when the absorbance (A450 nm) cut-off for the antigen mL1CAM was set to at least 0.4 for selection, one clone in the 2nd round, a total of 26 clones in the 3rd round, and a total of 9 clones in the 4th round specifically bound (positive) to the antigen mL1CAM in ELISA (FIG. 3).

T2 sequence (P11627 20-1123 limits assumed): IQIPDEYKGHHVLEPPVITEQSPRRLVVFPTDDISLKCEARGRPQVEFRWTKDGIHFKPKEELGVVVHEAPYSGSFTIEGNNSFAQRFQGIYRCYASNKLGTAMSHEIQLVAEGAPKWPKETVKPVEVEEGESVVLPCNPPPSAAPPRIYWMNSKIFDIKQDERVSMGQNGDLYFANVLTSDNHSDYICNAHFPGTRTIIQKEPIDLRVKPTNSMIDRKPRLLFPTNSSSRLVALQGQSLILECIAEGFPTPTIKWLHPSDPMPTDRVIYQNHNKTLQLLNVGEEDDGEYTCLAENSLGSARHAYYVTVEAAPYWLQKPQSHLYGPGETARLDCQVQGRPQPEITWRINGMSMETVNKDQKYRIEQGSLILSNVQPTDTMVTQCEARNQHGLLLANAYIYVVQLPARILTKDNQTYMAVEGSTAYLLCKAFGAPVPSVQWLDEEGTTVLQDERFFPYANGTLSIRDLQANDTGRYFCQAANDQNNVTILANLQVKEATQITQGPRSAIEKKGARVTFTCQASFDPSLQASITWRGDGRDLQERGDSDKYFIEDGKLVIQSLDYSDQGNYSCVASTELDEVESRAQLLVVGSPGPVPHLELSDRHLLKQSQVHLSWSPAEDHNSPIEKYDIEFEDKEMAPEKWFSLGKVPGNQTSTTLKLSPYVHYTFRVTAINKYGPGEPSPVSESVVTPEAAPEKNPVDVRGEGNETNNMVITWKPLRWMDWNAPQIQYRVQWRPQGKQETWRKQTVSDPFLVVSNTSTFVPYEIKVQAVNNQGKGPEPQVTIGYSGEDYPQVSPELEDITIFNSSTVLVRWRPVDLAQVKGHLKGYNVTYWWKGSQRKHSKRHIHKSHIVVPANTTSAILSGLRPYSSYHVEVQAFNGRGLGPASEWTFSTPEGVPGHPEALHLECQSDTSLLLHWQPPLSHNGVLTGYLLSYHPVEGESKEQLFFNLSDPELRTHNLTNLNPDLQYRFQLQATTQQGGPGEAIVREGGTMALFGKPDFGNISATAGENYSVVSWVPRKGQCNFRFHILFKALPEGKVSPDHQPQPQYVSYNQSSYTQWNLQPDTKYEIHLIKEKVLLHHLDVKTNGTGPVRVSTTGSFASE
T1 sequence (P32004 20-1120 limits assumed): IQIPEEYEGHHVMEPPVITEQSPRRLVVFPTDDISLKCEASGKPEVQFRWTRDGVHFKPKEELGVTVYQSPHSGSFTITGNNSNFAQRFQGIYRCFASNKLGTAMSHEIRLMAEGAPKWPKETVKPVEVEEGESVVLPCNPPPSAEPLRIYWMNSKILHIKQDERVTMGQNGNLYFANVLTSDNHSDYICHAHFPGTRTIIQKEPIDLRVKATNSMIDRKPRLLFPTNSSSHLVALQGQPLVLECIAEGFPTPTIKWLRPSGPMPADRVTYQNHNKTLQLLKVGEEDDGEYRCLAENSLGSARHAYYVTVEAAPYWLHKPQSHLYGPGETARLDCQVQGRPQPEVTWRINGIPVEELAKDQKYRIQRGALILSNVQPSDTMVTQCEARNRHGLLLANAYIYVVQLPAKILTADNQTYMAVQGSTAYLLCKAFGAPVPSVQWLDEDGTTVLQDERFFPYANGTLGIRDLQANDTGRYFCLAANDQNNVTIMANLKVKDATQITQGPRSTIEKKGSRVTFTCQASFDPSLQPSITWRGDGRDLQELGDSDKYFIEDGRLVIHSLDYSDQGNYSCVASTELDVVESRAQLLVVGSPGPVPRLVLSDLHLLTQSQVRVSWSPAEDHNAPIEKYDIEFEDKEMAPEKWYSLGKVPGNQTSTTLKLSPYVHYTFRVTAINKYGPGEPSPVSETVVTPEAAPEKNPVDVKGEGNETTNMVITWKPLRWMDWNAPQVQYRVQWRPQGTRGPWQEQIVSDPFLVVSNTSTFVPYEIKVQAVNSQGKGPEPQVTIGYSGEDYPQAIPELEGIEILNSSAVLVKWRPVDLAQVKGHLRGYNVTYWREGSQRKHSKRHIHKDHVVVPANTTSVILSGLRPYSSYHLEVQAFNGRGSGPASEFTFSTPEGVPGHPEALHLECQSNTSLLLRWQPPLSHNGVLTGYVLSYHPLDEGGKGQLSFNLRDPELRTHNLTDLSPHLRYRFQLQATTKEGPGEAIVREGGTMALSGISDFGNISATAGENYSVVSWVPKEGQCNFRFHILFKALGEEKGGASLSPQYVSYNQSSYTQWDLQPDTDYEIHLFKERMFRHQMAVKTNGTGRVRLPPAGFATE

B1: whole IgG1 antibody converted from clone 3R-H8 (antibody, V domains shown)
VH: EVQLVESGGGLVQPGGSLRLSCAASGFTFSDYAMNWVRQAPGKGLEWVSAISSTGSTIYYADSVKGRFTISRDNSKNTLYLQMNSLRAEDTAVYYCAKQSTYFYSYFDVWGQGTLVTVSS
VL: not shown
notes: also called 3R-H8 whole IgG1; mL1CAM-3R-H8 IgG1
On to B1, for which the koff (as a rule, the rate constant with which the complex falls apart) was 0.000239 s⁻¹ in test [1] and 0.00945 s⁻¹ in test [6]. In addition, the Kd (usually the constant that tells how readily two partners part at equilibrium) in test [2] came out at 4.14 nM; in test [3] it was 20.5 nM. The figures for the kon in test [4] and in test [5] were 57700 M⁻¹ s⁻¹ and 462000 M⁻¹ s⁻¹, respectively.

B2: E7 (scFv)
scFv (VH-linker-VL): EVQLVESGGGLVQPGGSLRLSCAASGFTFSSYAMHWVRQAPGKGLEWVSAISSSGSSKYYADSVKGRFTISRDNSKNTLYLQINSLRAEDTAVYYCAKDESYGWLYAFDLWGQGTLVTVSSGGGGSGGGGSGGGGSDIQMTQSPSSLSASVGDRVTITCRASQSISNYLNWYQQKPGKAPKLLIYAASRLQSGVPSRFSGSGSGTDFTLTISSLQPEDFATYYCQQSYSFPLTFGQGTKVEIK
notes: also called mL1CAM-3R-E7; ID 4 group
Regarding B2, in test [7], the binding result was “binds”.

B3: G2 (scFv)
scFv (VH-linker-VL): EVQLVESGGGLVQPGGSLRLSCAASGFTFSSYAMHWVRQAPGKGLEWVSAISSSGSSKYYADSVKGRFTISRDNSKNTLYLQINSLRAEDTAVYYCAKDESYGWLYAFDLWGQGTLVTVSSGGGGSGGGGSGGGGSDIQMTQSPSSLSASVGDRVTITCRASQSISNYLNWYQQKPGKAPKLLIYAASRLQSGVPSRFSGSGSGTDFTLTISSLQPEDFATYYCQQSYSFPLTFGQGTKVEIK
notes: also called mL1CAM-3R-G2; ID 4 group
With B3, the binding result in test [7] is recorded as “binds”.

(Values after US20220242948A1 (CARTEXELL, published 2022).)
